Laboratory results reported in the Human Domainome abundance scans (Beltran et al. 2025).
± gives the uncertainty stated by the source.

B1: CD2-associated protein, residues 271 to 331; numbered along this chain, Q9Y5K6 (parent)
chain: KEYCRTLFAYEGTNEDELTFKEGEIIHLISKETGEAGWWRGELNGKEGVFPDNFAVQINEL

Variants of: B1
Test: abundance fitness (aPCA) (normalised: wild type 0, dead -1); higher = more abundant; growth selection in yeast, the domain comes from the species named
Settings: Homo sapiens

**Q.** Which abundance fitness does the source give for KEYCRTLFAYEGTNEDELTFKEGEIIHLISKETGEWGWWRGELNGKEGVFPDNFAVQINEL [A36W] here?
**A.** Its abundance fitness is -0.22 ± 0.068.

**Q.** For KEYCRTLFAYEGTNEDELTFKEGEIIHLISKETGEYGWWRGELNGKEGVFPDNFAVQINEL [A36Y], which abundance fitness is on record?
**A.** Its abundance fitness is -0.334 ± 0.15.

**Q.** For KEYCRTLFAYEGTNEDELTFKEGEIIHLISKETGEVGWWRGELNGKEGVFPDNFAVQINEL [A36V], which abundance fitness is on record?
**A.** The abundance fitness was -0.03 ± 0.064.

**Q.** Which abundance fitness does the source give for KEYCRTLFAYEGTNEDELTFKEGEIIHLISKETGEAFWWRGELNGKEGVFPDNFAVQINEL [G37F] here?
**A.** Its abundance fitness is -0.492 ± 0.25.

**Q.** With KEYCRTLFAYEGTNEDELTFKEGEIIHLISKETGEANWWRGELNGKEGVFPDNFAVQINEL [G37N] as the variant, how does the abundance fitness read?
**A.** The abundance fitness was -0.747 ± 0.16.

**Q.** Which abundance fitness does the source give for KEYCRTLFAYEGTNEDELTFKEGEIIHLISKETGEAYWWRGELNGKEGVFPDNFAVQINEL [G37Y] here?
**A.** The abundance fitness was -0.898 ± 0.2.

**Q.** With KEYCRTLFAYEGTNEDELTFKEGEIIHLISKETGEATWWRGELNGKEGVFPDNFAVQINEL [G37T] as the variant, how does the abundance fitness read?
**A.** Its abundance fitness is -0.416 ± 0.32.

**Q.** For KEYCRTLFAYEGTNEDELTFKEGEIIHLISKETGEADWWRGELNGKEGVFPDNFAVQINEL [G37D], which abundance fitness is on record?
**A.** The abundance fitness was -0.617 ± 0.17.

**Q.** With KEYCRTLFAYEGTNEDELTFKEGEIIHLISKETGEAVWWRGELNGKEGVFPDNFAVQINEL [G37V] as the variant, how does the abundance fitness read?
**A.** Its abundance fitness is -0.647 ± 0.1.

**Q.** For KEYCRTLFAYEGTNEDELTFKEGEIIHLISKETGEAQWWRGELNGKEGVFPDNFAVQINEL [G37Q], which abundance fitness is on record?
**A.** The abundance fitness was -0.428 ± 0.2.

**Q.** Which abundance fitness does the source give for KEYCRTLFAYEGTNEDELTFKEGEIIHLISKETGEAPWWRGELNGKEGVFPDNFAVQINEL [G37P] here?
**A.** Its abundance fitness is -0.852 ± 0.2.

**Q.** With KEYCRTLFAYEGTNEDELTFKEGEIIHLISKETGEALWWRGELNGKEGVFPDNFAVQINEL [G37L] as the variant, how does the abundance fitness read?
**A.** The abundance fitness was -0.884 ± 0.12.

**Q.** With KEYCRTLFAYEGTNEDELTFKEGEIIHLISKETGEAKWWRGELNGKEGVFPDNFAVQINEL [G37K] as the variant, how does the abundance fitness read?
**A.** The abundance fitness was -0.403 ± 0.097.

**Q.** Which abundance fitness does the source give for KEYCRTLFAYEGTNEDELTFKEGEIIHLISKETGEAIWWRGELNGKEGVFPDNFAVQINEL [G37I] here?
**A.** Its abundance fitness is -0.613 ± 0.2.

**Q.** With KEYCRTLFAYEGTNEDELTFKEGEIIHLISKETGEAEWWRGELNGKEGVFPDNFAVQINEL [G37E] as the variant, how does the abundance fitness read?
**A.** The abundance fitness was -0.368 ± 0.19.

**Q.** For KEYCRTLFAYEGTNEDELTFKEGEIIHLISKETGEARWWRGELNGKEGVFPDNFAVQINEL [G37R], which abundance fitness is on record?
**A.** The abundance fitness was -0.651 ± 0.09.

**Q.** Which abundance fitness does the source give for KEYCRTLFAYEGTNEDELTFKEGEIIHLISKETGEAMWWRGELNGKEGVFPDNFAVQINEL [G37M] here?
**A.** Its abundance fitness is -0.819 ± 0.17.

**Q.** With KEYCRTLFAYEGTNEDELTFKEGEIIHLISKETGEAHWWRGELNGKEGVFPDNFAVQINEL [G37H] as the variant, how does the abundance fitness read?
**A.** Its abundance fitness is -0.306 ± 0.17.

**Q.** For KEYCRTLFAYEGTNEDELTFKEGEIIHLISKETGEASWWRGELNGKEGVFPDNFAVQINEL [G37S], which abundance fitness is on record?
**A.** The abundance fitness was -0.718 ± 0.1.

**Q.** For KEYCRTLFAYEGTNEDELTFKEGEIIHLISKETGEAWWWRGELNGKEGVFPDNFAVQINEL [G37W], which abundance fitness is on record?
**A.** The abundance fitness was -1.08 ± 0.43.

**Q.** For KEYCRTLFAYEGTNEDELTFKEGEIIHLISKETGEAGQWRGELNGKEGVFPDNFAVQINEL [W38Q], which abundance fitness is on record?
**A.** The abundance fitness was -0.3 ± 0.1.

**Q.** For KEYCRTLFAYEGTNEDELTFKEGEIIHLISKETGEAGHWRGELNGKEGVFPDNFAVQINEL [W38H], which abundance fitness is on record?
**A.** Its abundance fitness is -0.349 ± 0.12.

**Q.** With KEYCRTLFAYEGTNEDELTFKEGEIIHLISKETGEAGPWRGELNGKEGVFPDNFAVQINEL [W38P] as the variant, how does the abundance fitness read?
**A.** Its abundance fitness is -0.729 ± 0.1.

**Q.** Which abundance fitness does the source give for KEYCRTLFAYEGTNEDELTFKEGEIIHLISKETGEAGDWRGELNGKEGVFPDNFAVQINEL [W38D] here?
**A.** The abundance fitness was -0.825 ± 0.18.

**Q.** With KEYCRTLFAYEGTNEDELTFKEGEIIHLISKETGEAGMWRGELNGKEGVFPDNFAVQINEL [W38M] as the variant, how does the abundance fitness read?
**A.** The abundance fitness was -0.17 ± 0.11.

**Q.** For KEYCRTLFAYEGTNEDELTFKEGEIIHLISKETGEAGAWRGELNGKEGVFPDNFAVQINEL [W38A], which abundance fitness is on record?
**A.** The abundance fitness was -0.502 ± 0.076.

**Q.** For KEYCRTLFAYEGTNEDELTFKEGEIIHLISKETGEAGRWRGELNGKEGVFPDNFAVQINEL [W38R], which abundance fitness is on record?
**A.** Its abundance fitness is -0.216 ± 0.062.

**Q.** With KEYCRTLFAYEGTNEDELTFKEGEIIHLISKETGEAGIWRGELNGKEGVFPDNFAVQINEL [W38I] as the variant, how does the abundance fitness read?
**A.** The abundance fitness was -0.361 ± 0.075.

**Q.** Which abundance fitness does the source give for KEYCRTLFAYEGTNEDELTFKEGEIIHLISKETGEAGFWRGELNGKEGVFPDNFAVQINEL [W38F] here?
**A.** The abundance fitness was -0.145 ± 0.12.

**Q.** For KEYCRTLFAYEGTNEDELTFKEGEIIHLISKETGEAGKWRGELNGKEGVFPDNFAVQINEL [W38K], which abundance fitness is on record?
**A.** Its abundance fitness is -0.034 ± 0.077.

**Q.** Which abundance fitness does the source give for KEYCRTLFAYEGTNEDELTFKEGEIIHLISKETGEAGCWRGELNGKEGVFPDNFAVQINEL [W38C] here?
**A.** Its abundance fitness is -0.345 ± 0.072.

**Q.** For KEYCRTLFAYEGTNEDELTFKEGEIIHLISKETGEAGTWRGELNGKEGVFPDNFAVQINEL [W38T], which abundance fitness is on record?
**A.** Its abundance fitness is -0.404 ± 0.075.

**Q.** Which abundance fitness does the source give for KEYCRTLFAYEGTNEDELTFKEGEIIHLISKETGEAGEWRGELNGKEGVFPDNFAVQINEL [W38E] here?
**A.** The abundance fitness was -0.781 ± 0.19.

**Q.** Which abundance fitness does the source give for KEYCRTLFAYEGTNEDELTFKEGEIIHLISKETGEAGVWRGELNGKEGVFPDNFAVQINEL [W38V] here?
**A.** The abundance fitness was -0.249 ± 0.069.

**Q.** With KEYCRTLFAYEGTNEDELTFKEGEIIHLISKETGEAGYWRGELNGKEGVFPDNFAVQINEL [W38Y] as the variant, how does the abundance fitness read?
**A.** Its abundance fitness is -0.043 ± 0.079.

**Q.** For KEYCRTLFAYEGTNEDELTFKEGEIIHLISKETGEAGGWRGELNGKEGVFPDNFAVQINEL [W38G], which abundance fitness is on record?
**A.** Its abundance fitness is -0.559 ± 0.13.

**Q.** Which abundance fitness does the source give for KEYCRTLFAYEGTNEDELTFKEGEIIHLISKETGEAGNWRGELNGKEGVFPDNFAVQINEL [W38N] here?
**A.** The abundance fitness was -0.787 ± 0.13.

**Q.** Which abundance fitness does the source give for KEYCRTLFAYEGTNEDELTFKEGEIIHLISKETGEAGSWRGELNGKEGVFPDNFAVQINEL [W38S] here?
**A.** The abundance fitness was -0.675 ± 0.075.

**Q.** For KEYCRTLFAYEGTNEDELTFKEGEIIHLISKETGEAGWDRGELNGKEGVFPDNFAVQINEL [W39D], which abundance fitness is on record?
**A.** Its abundance fitness is -0.941 ± 0.47.

**Q.** For KEYCRTLFAYEGTNEDELTFKEGEIIHLISKETGEAGWARGELNGKEGVFPDNFAVQINEL [W39A], which abundance fitness is on record?
**A.** The abundance fitness was -0.328 ± 0.098.

**Q.** With KEYCRTLFAYEGTNEDELTFKEGEIIHLISKETGEAGWCRGELNGKEGVFPDNFAVQINEL [W39C] as the variant, how does the abundance fitness read?
**A.** The abundance fitness was -0.48 ± 0.12.

**Q.** For KEYCRTLFAYEGTNEDELTFKEGEIIHLISKETGEAGWERGELNGKEGVFPDNFAVQINEL [W39E], which abundance fitness is on record?
**A.** Its abundance fitness is -0.663 ± 0.12.

**Q.** With KEYCRTLFAYEGTNEDELTFKEGEIIHLISKETGEAGWGRGELNGKEGVFPDNFAVQINEL [W39G] as the variant, how does the abundance fitness read?
**A.** The abundance fitness was -0.615 ± 0.082.

**Q.** Which abundance fitness does the source give for KEYCRTLFAYEGTNEDELTFKEGEIIHLISKETGEAGWFRGELNGKEGVFPDNFAVQINEL [W39F] here?
**A.** Its abundance fitness is -0.513 ± 0.09.
